Test results taken from article PMC8558179, “The C-terminal peptide of CCL21 drastically augments CCL21 activity through the dendritic cell lymph node homing receptor CCR7 by interaction with the receptor N-terminus” (Cellular and Molecular Life Sciences: CMLS, 2021).
Entries after “also recorded” stand apart in the source; their conditions may differ.

T1: human CCR7 (Homo sapiens, UniProt P32248)
T1 construct: CCR7 contains a 24-residue long signal peptide cleaved of from the mature protein; expressed in transfected cells; host or cells: CHO cells (CHO-K1, CHO suspension WT, GAG-deficient and 5xKO GalNAc-T knockout lines), transient transfection
T1 sequence (P32248 25-378): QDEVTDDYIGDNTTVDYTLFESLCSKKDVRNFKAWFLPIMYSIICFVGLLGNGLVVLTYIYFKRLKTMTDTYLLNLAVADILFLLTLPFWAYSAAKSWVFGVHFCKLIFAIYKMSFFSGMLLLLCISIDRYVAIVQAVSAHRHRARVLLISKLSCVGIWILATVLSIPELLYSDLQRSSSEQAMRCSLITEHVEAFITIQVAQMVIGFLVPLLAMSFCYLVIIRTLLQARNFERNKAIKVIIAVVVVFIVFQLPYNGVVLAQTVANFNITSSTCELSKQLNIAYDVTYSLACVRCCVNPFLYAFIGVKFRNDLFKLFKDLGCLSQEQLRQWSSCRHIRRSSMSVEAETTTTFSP


Assays:
human CCR7 [1] = target: T1, human CCR7; test: Gαi signaling, BRET-based cAMP (CAMYEL) assay at CCR7 in CHO cells; assay type: cell-based; conditions: for effect of C21TP on CCL21^Tailless activity (Gαi signaling): CCL21^Tailless (CCL21 1–79) + 10 µM TP71-111, n = 4
Protocol: Human DCs were cultured in X-vivo 15 medium with 2% human AB serum and glutamine. CHO-K1 pgsB-618 ATCC® CRL2241™ [24] and CHO-K1 cells were grown in RPMI with 10% FBS and Penicillin/Streptomycin. HS^−/− (CHO EXTL 2/3 −/−), CS^−/− (CSGALNACT 1/2^−/− CHSY1^−/−), 5xKO (GalNAc-T1, 2, 4, 7 and 10 −/−) and WT CHO suspension cells were grown in suspension in 1:1 of EX-Cell CD CHO fusion media and Balanced CD CHO growth A medium supplemented with 2% glutamine and Penicillin/Streptomycin. Cells were kept in a humidified incubator at 37 °C, 5% CO2.
(§1) For cAMP assays, adherent CHO cells were transfected using lipofectamine while suspension cells were transfected using the FectoPro method. Cells were seeded in a 6-well plate, either 500,000 (adherent cells) or 200,000 (suspension cells) cells/well. The next day the cells were transiently transfected with vectors encoding the human CCR7 and CAMYEL sensor (cAMP sensor using YFP-Epac-RLuc) in a 1:5 ratio using lipofectamine (6 µl/well) or FectoPro (4 µl/well). Lipofectamine transfections were terminated by changing to 2 ml fresh cultivation medium after 5 h, while Fectopro transfection was terminated after 3 h by adding 2.5 ml fresh cultivation medium and 2 µl FectoPro Boost reagent per well. The cells were incubated under standard cultivation conditions overnight. For β-arrestin recruitment assays, cells were transfected with CCR7 and vectors expressing a Renilla luciferase arrestin3 fusion protein and membrane-SH3-citrine protein. The cells were then resuspended in PBS w/glucose and seeded in 96-well white iso plates (~ 25,000 cells/well). Coelenterazine (bioluminescence substrate) was added to a final conc. of 5 µM. After 10 min, cells were stimulated with varying ligand concentrations for a total of 40 min. Forskolin was added to each well 5 min after ligand addition to reach a final conc. of 5 µM. The plates were kept in the dark at all times. Emission signal from Rluc and eYFP was measured using the Envision machine at 530 and 480 nm and the BRET signal determined as the ratio between (eYFP/Rluc).

human CCR7 [2] = target: T1, human CCR7; test: β-arrestin recruitment, BRET-based assay at CCR7; assay type: cell-based
Protocol: as §1

CCR6 = test: Gαi signaling, BRET cAMP assay at CCR6 in CHO cells; assay type: cell-based; conditions: CCL20 + 10 µM TP71-111, CHO cells, n = 3
Protocol: For cAMP assays, adherent CHO cells were transfected using lipofectamine while suspension cells were transfected using the FectoPro method. Cells were seeded in a 6-well plate, either 500,000 (adherent cells) or 200,000 (suspension cells) cells/well. The next day the cells were transiently transfected with vectors encoding the human CCR7 and CAMYEL sensor (cAMP sensor using YFP-Epac-RLuc) in a 1:5 ratio using lipofectamine (6 µl/well) or FectoPro (4 µl/well). Lipofectamine transfections were terminated by changing to 2 ml fresh cultivation medium after 5 h, while Fectopro transfection was terminated after 3 h by adding 2.5 ml fresh cultivation medium and 2 µl FectoPro Boost reagent per well. The cells were incubated under standard cultivation conditions overnight. […] Emission signal from Rluc and eYFP was measured using the Envision machine at 530 and 480 nm and the BRET signal determined as the ratio between (eYFP/Rluc).
Supplementary file 18_2021_3930_MOESM2_ESM.png: Supplementary file2 C21TP also boosts signaling of the DC expressed chemokine receptor CCR6. […] B) CCL20-induced CCR6 Gαi –signaling in CHO cells quantified using the BRET Based cAMP assay. […] Statistical significance was calculated using two-way ANOVA with Sidek’s correction for multiple test. *P<0.05, **P <0.01, ***P <0.001, ns, not significant (PNG 878 KB)

CCR7 (primary T cells) = conditions: heterologous competition binding, apparent affinity; cited from earlier work
Source text: In the absence of peptide, CCL19 and CCL21 contact CCR7 in different manners. The interaction of CCL21 depends on residues in the top of TM-3, -4 and -5 that are not important for CCL19 interaction with CCR7. The binding of these two chemokines induce different structural changes in CCR7 to disrupt old and create new hydrogen bonds. CCL21 binding to CCR7 is believed to involve movements within the majority of helical domains (TM2, -3, -4, -5, -6, and -7), whereas the changes induced by CCL19 are restricted to regions of TM3, -5, and -6 [37]. The conformational changes in CCR7 ind ...

Collagen I = conditions: cited from earlier work
Source text: In the current study we have used Collagen I in the 3D chemotaxis assays. Collagen I has low affinity for CCL21 [31]. Matrigel on the other hand binds CCL21 well. As CCL21 is immobilized in vivo [20], to evaluate the full effect of C21TP on dendritic cell migration, experiments using Matrigel would need to be conducted. Such assay could reveal if C21TP affect the interaction between CCR7 and immobilized CCL21 where the basic tail is participating in surface tethering and potentially unable to engage in steric hindrance of CCR7. Again, since boosting of in vitro signaling occurred in both p ...

CCL21 = conditions: cited from earlier work
Source text: Another phenomenon that could explain the C21TP boosting ability would be that the peptide was able to relieve the auto-inhibition of CCL21. The peptide could potentially occupy the site on CCL21 normally contacted by the attached basic C-terminus during the auto-inhibition process, in this way preventing the formation of the locked CCL21 version. In this way the peptide could participate in unfolding of CCL21, similar to the process that is predicted to take place in the presence of polysialic acid residues. The boosting effect of C21TP on CCL19 could also be based on a direct chemokin ...

Molecule | fold reduction of C21TP boosting effect on CCL21 signaling in 5xKO vs WT (human CCR7 [1]; CCL21 + 10 µM TP71-111, CHO 5xKO vs WT) [fold] | effect of C21TP on CCL21^Tailless activity (Gαi signaling) (human CCR7 [1]) | effect of C21TP on CCL21^Tailless activity (Gαi signaling) (human CCR7 [1]; listed as C21TP) | boosting of CCL21-induced CCR7 signaling in GAG KO cells (human CCR7 [1]; CHO GAG KO (pgsB 618) vs WT, 10 µM TP71-111, n = 3) | boosting of CCL21-induced CCR7 signaling in GAG-deficient cells (human CCR7 [1]; CHO HS−/−, CS−/− and GAG KO (pgsB 618) cells, 10 µM TP71-111, n = 3) | boosting of CCL19-induced CCR7 signaling in GAG-deficient cells (human CCR7 [1]; CHO HS−/−, CS−/−, GAG KO cells, 10 µM TP71-111, n = 3, listed as C21TP) | fold boost of CCL21 signaling activity via CCR7 (human CCR7 [1]; in the presence of C21TP) | effect of C21TP on CCL21^Tailless β-arrestin recruitment (human CCR7 [2]; CCL21^Tailless (CCL21 1–79) + 10 µM TP71-111, n = 4) | boosting of CCL20-induced signaling at CCR6 (CCR6) | boosting of CCL20-induced signaling at CCR6 (CCR6; listed as C21TP) | fold lower binding affinity of CCL21 in primary T cells (CCR7 (primary T cells)) | pEC50, Gαi signaling, chemokine alone (human CCR7 [1]; no peptide, CHO cells, forskolin 5 µM, n = 4) | pEC50, β-arrestin recruitment, chemokine alone (human CCR7 [2]; no peptide, n = 4) | affinity of Collagen I for CCL21 (Collagen I) | CCL21 self-association (CCL21)
TP71-111: free CCL21 C-terminal peptide, residues 71–111 (41 amino acids, positively charged) (PSPQKPAQGCRKDRGASKTGKKGKGSKGCKRTERSQTPKGP; UniProt O00585 94-134, looked up, fragment) | 25 | not improved | did not affect CCL21^Tailless potency | tendency that boosting by C21TP (TP71-111) was increased | In none of the GAG-deficient cells did we measure any decrease | similarly unaffected by the lack of GAGs; also recorded: independent of cell GAG status | ~ 100 fold | small but significant decrease | very similar to the boosting observed with CCL19 acting at CCR7 | also boosts CCL20 signaling via CCR6 |  |  |  |  | 
CCL21: full-length chemokine (residues 1–111), CCR7 ligand, from R&D Systems (protein, UniProt O00585 24-134, looked up) C-C motif chemokine 21: SDGGAQDCCLKYSQRKIPAKVVRSYRKQEPSLGCSIPAILFLPRKRSQAELCADPKELWVQQLMQHLDKTPSPQKPAQGCRKDRGASKTGKKGKGSKGCKRTERSQTPKGP |  |  |  |  |  |  |  |  |  |  | sixfold lower binding affinity | 6.46 | undetectable | low affinity | weak and only detectable at mM concentrations
